According to patent US20210388087A1 (Chugai, published 2021):

T1: Human CD3eg linker (human)
T1 construct: Single chain: epsilon and gamma subunits of human CD3 joined by a 29-mer linker, Flag-tag at the C-terminus; also called recombinant human CD3
T1 chain: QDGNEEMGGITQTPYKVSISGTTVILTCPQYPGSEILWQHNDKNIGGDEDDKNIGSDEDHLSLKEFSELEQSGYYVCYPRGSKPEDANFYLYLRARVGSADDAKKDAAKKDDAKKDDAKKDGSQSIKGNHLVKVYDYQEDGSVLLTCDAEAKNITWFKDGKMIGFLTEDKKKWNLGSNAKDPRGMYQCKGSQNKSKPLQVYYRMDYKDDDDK


Molecular target: T1, Human CD3eg linker
Experiment: Biacore SPR, vs template H183/L072

Row | Binder | fold change of affinity [fold]
1 | H183/L072 VH G26A (antibody, name in Kabat numbering, V domains shown) VH: QVQLVESGGGLVQPGRSLRLSCAASAFTFSNAWMHWVRQAPGKGLEWVAQIKDKGNAYAAYYAPSVKGRFTISRDDSKNSIYLQMNSLKTEDTAVYYCHYVHYASASTVLPAFGVDAWGQGTTVTVSS VL: DIVMTQSPLSLPVTPGEPASISCQASQELVHMNRNTYLHWYQQKPGQAPRLLIYKVSNRFPGVPDRFSGSGSGTDFTLKISRVEAEDVGVYYCAQGTSVPFTFGQGTKLEIK | 0.5
2 | H183/L072 VH A32D (antibody, name in Kabat numbering, V domains shown) VH: QVQLVESGGGLVQPGRSLRLSCAASGFTFSNDWMHWVRQAPGKGLEWVAQIKDKGNAYAAYYAPSVKGRFTISRDDSKNSIYLQMNSLKTEDTAVYYCHYVHYASASTVLPAFGVDAWGQGTTVTVSS VL: DIVMTQSPLSLPVTPGEPASISCQASQELVHMNRNTYLHWYQQKPGQAPRLLIYKVSNRFPGVPDRFSGSGSGTDFTLKISRVEAEDVGVYYCAQGTSVPFTFGQGTKLEIK | 0
3 | H183/L072 VH A32P (antibody, name in Kabat numbering, V domains shown) VH: QVQLVESGGGLVQPGRSLRLSCAASGFTFSNPWMHWVRQAPGKGLEWVAQIKDKGNAYAAYYAPSVKGRFTISRDDSKNSIYLQMNSLKTEDTAVYYCHYVHYASASTVLPAFGVDAWGQGTTVTVSS VL: DIVMTQSPLSLPVTPGEPASISCQASQELVHMNRNTYLHWYQQKPGQAPRLLIYKVSNRFPGVPDRFSGSGSGTDFTLKISRVEAEDVGVYYCAQGTSVPFTFGQGTKLEIK | 0
4 | H183/L072 VH A32L (antibody, name in Kabat numbering, V domains shown) VH: QVQLVESGGGLVQPGRSLRLSCAASGFTFSNLWMHWVRQAPGKGLEWVAQIKDKGNAYAAYYAPSVKGRFTISRDDSKNSIYLQMNSLKTEDTAVYYCHYVHYASASTVLPAFGVDAWGQGTTVTVSS VL: DIVMTQSPLSLPVTPGEPASISCQASQELVHMNRNTYLHWYQQKPGQAPRLLIYKVSNRFPGVPDRFSGSGSGTDFTLKISRVEAEDVGVYYCAQGTSVPFTFGQGTKLEIK | 0
5 | H183/L072 VH A32F (antibody, name in Kabat numbering, V domains shown) VH: QVQLVESGGGLVQPGRSLRLSCAASGFTFSNFWMHWVRQAPGKGLEWVAQIKDKGNAYAAYYAPSVKGRFTISRDDSKNSIYLQMNSLKTEDTAVYYCHYVHYASASTVLPAFGVDAWGQGTTVTVSS VL: DIVMTQSPLSLPVTPGEPASISCQASQELVHMNRNTYLHWYQQKPGQAPRLLIYKVSNRFPGVPDRFSGSGSGTDFTLKISRVEAEDVGVYYCAQGTSVPFTFGQGTKLEIK | 0
6 | H183/L072 VH A32N (antibody, name in Kabat numbering, V domains shown) VH: QVQLVESGGGLVQPGRSLRLSCAASGFTFSNNWMHWVRQAPGKGLEWVAQIKDKGNAYAAYYAPSVKGRFTISRDDSKNSIYLQMNSLKTEDTAVYYCHYVHYASASTVLPAFGVDAWGQGTTVTVSS VL: DIVMTQSPLSLPVTPGEPASISCQASQELVHMNRNTYLHWYQQKPGQAPRLLIYKVSNRFPGVPDRFSGSGSGTDFTLKISRVEAEDVGVYYCAQGTSVPFTFGQGTKLEIK | 0.5
7 | H183/L072 VH A32E (antibody, name in Kabat numbering, V domains shown) VH: QVQLVESGGGLVQPGRSLRLSCAASGFTFSNEWMHWVRQAPGKGLEWVAQIKDKGNAYAAYYAPSVKGRFTISRDDSKNSIYLQMNSLKTEDTAVYYCHYVHYASASTVLPAFGVDAWGQGTTVTVSS VL: DIVMTQSPLSLPVTPGEPASISCQASQELVHMNRNTYLHWYQQKPGQAPRLLIYKVSNRFPGVPDRFSGSGSGTDFTLKISRVEAEDVGVYYCAQGTSVPFTFGQGTKLEIK | 0.1
8 | H183/L072 VH A32S (antibody, name in Kabat numbering, V domains shown) VH: QVQLVESGGGLVQPGRSLRLSCAASGFTFSNSWMHWVRQAPGKGLEWVAQIKDKGNAYAAYYAPSVKGRFTISRDDSKNSIYLQMNSLKTEDTAVYYCHYVHYASASTVLPAFGVDAWGQGTTVTVSS VL: DIVMTQSPLSLPVTPGEPASISCQASQELVHMNRNTYLHWYQQKPGQAPRLLIYKVSNRFPGVPDRFSGSGSGTDFTLKISRVEAEDVGVYYCAQGTSVPFTFGQGTKLEIK | 0.4
9 | H183/L072 VH A32R (antibody, name in Kabat numbering, V domains shown) VH: QVQLVESGGGLVQPGRSLRLSCAASGFTFSNRWMHWVRQAPGKGLEWVAQIKDKGNAYAAYYAPSVKGRFTISRDDSKNSIYLQMNSLKTEDTAVYYCHYVHYASASTVLPAFGVDAWGQGTTVTVSS VL: DIVMTQSPLSLPVTPGEPASISCQASQELVHMNRNTYLHWYQQKPGQAPRLLIYKVSNRFPGVPDRFSGSGSGTDFTLKISRVEAEDVGVYYCAQGTSVPFTFGQGTKLEIK | 0.6
10 | H183/L072 VH A32I (antibody, name in Kabat numbering, V domains shown) VH: QVQLVESGGGLVQPGRSLRLSCAASGFTFSNIWMHWVRQAPGKGLEWVAQIKDKGNAYAAYYAPSVKGRFTISRDDSKNSIYLQMNSLKTEDTAVYYCHYVHYASASTVLPAFGVDAWGQGTTVTVSS VL: DIVMTQSPLSLPVTPGEPASISCQASQELVHMNRNTYLHWYQQKPGQAPRLLIYKVSNRFPGVPDRFSGSGSGTDFTLKISRVEAEDVGVYYCAQGTSVPFTFGQGTKLEIK | 0.1
11 | H183/L072 VH A32G (antibody, name in Kabat numbering, V domains shown) VH: QVQLVESGGGLVQPGRSLRLSCAASGFTFSNGWMHWVRQAPGKGLEWVAQIKDKGNAYAAYYAPSVKGRFTISRDDSKNSIYLQMNSLKTEDTAVYYCHYVHYASASTVLPAFGVDAWGQGTTVTVSS VL: DIVMTQSPLSLPVTPGEPASISCQASQELVHMNRNTYLHWYQQKPGQAPRLLIYKVSNRFPGVPDRFSGSGSGTDFTLKISRVEAEDVGVYYCAQGTSVPFTFGQGTKLEIK | 0.3
12 | H183/L072 VH A32M (antibody, name in Kabat numbering, V domains shown) VH: QVQLVESGGGLVQPGRSLRLSCAASGFTFSNMWMHWVRQAPGKGLEWVAQIKDKGNAYAAYYAPSVKGRFTISRDDSKNSIYLQMNSLKTEDTAVYYCHYVHYASASTVLPAFGVDAWGQGTTVTVSS VL: DIVMTQSPLSLPVTPGEPASISCQASQELVHMNRNTYLHWYQQKPGQAPRLLIYKVSNRFPGVPDRFSGSGSGTDFTLKISRVEAEDVGVYYCAQGTSVPFTFGQGTKLEIK | 0
13 | H183/L072 VH A32Q (antibody, name in Kabat numbering, V domains shown) VH: QVQLVESGGGLVQPGRSLRLSCAASGFTFSNQWMHWVRQAPGKGLEWVAQIKDKGNAYAAYYAPSVKGRFTISRDDSKNSIYLQMNSLKTEDTAVYYCHYVHYASASTVLPAFGVDAWGQGTTVTVSS VL: DIVMTQSPLSLPVTPGEPASISCQASQELVHMNRNTYLHWYQQKPGQAPRLLIYKVSNRFPGVPDRFSGSGSGTDFTLKISRVEAEDVGVYYCAQGTSVPFTFGQGTKLEIK | 0.4
14 | H183/L072 VH A32K (antibody, name in Kabat numbering, V domains shown) VH: QVQLVESGGGLVQPGRSLRLSCAASGFTFSNKWMHWVRQAPGKGLEWVAQIKDKGNAYAAYYAPSVKGRFTISRDDSKNSIYLQMNSLKTEDTAVYYCHYVHYASASTVLPAFGVDAWGQGTTVTVSS VL: DIVMTQSPLSLPVTPGEPASISCQASQELVHMNRNTYLHWYQQKPGQAPRLLIYKVSNRFPGVPDRFSGSGSGTDFTLKISRVEAEDVGVYYCAQGTSVPFTFGQGTKLEIK | 0.5
15 | H183/L072 VH A32H (antibody, name in Kabat numbering, V domains shown) VH: QVQLVESGGGLVQPGRSLRLSCAASGFTFSNHWMHWVRQAPGKGLEWVAQIKDKGNAYAAYYAPSVKGRFTISRDDSKNSIYLQMNSLKTEDTAVYYCHYVHYASASTVLPAFGVDAWGQGTTVTVSS VL: DIVMTQSPLSLPVTPGEPASISCQASQELVHMNRNTYLHWYQQKPGQAPRLLIYKVSNRFPGVPDRFSGSGSGTDFTLKISRVEAEDVGVYYCAQGTSVPFTFGQGTKLEIK | 0.5
